By Kd is commonly meant a measure of binding affinity in units of concentration. By stoichiometry N is commonly meant the number of molecules, sites or subunits per partner or assembly.

Kd and stoichiometry N data for 8 substances are collected here from publication PMC3240630.

Where two headings read alike, the source gives them in different places.

Assay [1] addresses monoubiquitin (UniProt P0CG48). To be noted: cited from earlier work.
In assay [2] the target is monoubiquitin (UniProt P0CG48). To be noted: cited from earlier work. This is another data set of the same source.
The target in assay [3] is monoubiquitin (UniProt P0CG48). To be noted: cited from earlier work. This is another data set of the same source.
Assay [4] concerns the target monoubiquitin (UniProt P0CG48). The following applies: cited from earlier work. This is another data set of the same source.
In assay [5] the target is monoubiquitin (UniProt P0CG48). The following applies: cited from earlier work. This is another data set of the same source.
Assay [6] concerns the target XIAP-UBA-RING double-domain construct (human). Kind of assay: SEC; analytical size-exclusion chromatography of 15N-XIAP-UBA-RING at 0.18 mM (methods in Methods S1). For orientation: SEC sorts molecules by how far they enter the pores of the column.
Assay [7] addresses monoubiquitin (UniProt P0CG48). The following applies: cited from earlier work. This is another data set of the same source.
Assay [8] deals with monoubiquitin (UniProt P0CG48). To be noted: cited from earlier work. The source holds these as a separate data set.

Sequence of hHR23A UBA2 (P54725 315-361): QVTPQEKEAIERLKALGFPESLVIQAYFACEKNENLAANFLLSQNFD
Sequence of Swa2 UBA (Q06677 137-183): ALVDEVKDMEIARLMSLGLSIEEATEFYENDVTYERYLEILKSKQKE
Sequence of Mud1 UBA (Q10256 291-332): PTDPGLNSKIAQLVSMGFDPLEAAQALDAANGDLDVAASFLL
Sequence of Dsk2 UBA (P48510 324-373): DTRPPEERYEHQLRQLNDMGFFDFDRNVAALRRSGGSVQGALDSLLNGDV
Sequence of cIAP-1 (Q13490 whole entry): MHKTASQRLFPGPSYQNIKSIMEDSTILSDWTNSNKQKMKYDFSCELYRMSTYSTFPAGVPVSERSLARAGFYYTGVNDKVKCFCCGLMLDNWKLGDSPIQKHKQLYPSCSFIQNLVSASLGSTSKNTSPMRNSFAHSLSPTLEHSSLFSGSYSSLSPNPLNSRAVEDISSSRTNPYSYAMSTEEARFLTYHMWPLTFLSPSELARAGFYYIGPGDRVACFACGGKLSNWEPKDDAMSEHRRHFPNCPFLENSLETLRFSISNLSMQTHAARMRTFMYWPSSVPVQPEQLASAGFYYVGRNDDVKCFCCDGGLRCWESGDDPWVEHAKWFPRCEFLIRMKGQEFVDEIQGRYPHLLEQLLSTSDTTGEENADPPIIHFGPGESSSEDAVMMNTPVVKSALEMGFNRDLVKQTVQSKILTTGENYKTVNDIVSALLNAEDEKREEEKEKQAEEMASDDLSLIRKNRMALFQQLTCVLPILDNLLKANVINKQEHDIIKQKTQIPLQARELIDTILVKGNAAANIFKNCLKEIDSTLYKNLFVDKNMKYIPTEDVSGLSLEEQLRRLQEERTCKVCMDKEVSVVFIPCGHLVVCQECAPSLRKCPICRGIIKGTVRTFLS
Sequence of Cbl-b UBA (Q13191 928-973): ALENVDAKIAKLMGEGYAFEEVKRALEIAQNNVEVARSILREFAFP
Sequence of Ede1 UBA (P34216 1335-1381): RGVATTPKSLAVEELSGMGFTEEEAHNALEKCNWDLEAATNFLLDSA

Consider Cbl-b UBA (from UniProt Q13191), for which, in the assay with monoubiquitin [1], the dissociation constant Kd is 53.1 µM.

Turning to Dsk2 UBA (from UniProt P48510), the Kd with monoubiquitin [2] was 14.8 µM. As for Ede1 UBA (from UniProt P34216), the dissociation constant (Kd) in the assay with monoubiquitin [3] was 83 µM. In the case of Mud1 UBA (from UniProt Q10256), the Kd in the assay with monoubiquitin [4] was 350 µM. As to Swa2 UBA (from UniProt Q06677), the equilibrium dissociation constant (Kd) in the assay with monoubiquitin [5] was 535 µM. As for “XIAP-UBA-RING double-domain construct (domain or fragment)”, the stoichiometry N in assay [6] was determined as 2. For cIAP-1 (from UniProt Q13490), the equilibrium dissociation constant (Kd) with monoubiquitin [7] is 56 µM. Consider hHR23A UBA2 (from UniProt P54725), for which the Kd with monoubiquitin [8] is 400 µM.
